The record followed here is the DeepSol protein solubility set.

The data set can be described thus: soluble on expression in E. coli; label from the status in PepcDB or PDB records.
Consider “MGSDKIHHHHHHMEKSEEKEIICRMFNSPLPHPSQNHLLAALPAMELGDLIPHLELIHMRAGDILCEAGDQLPYAYFPASAIISLHYILENGASSEIANVGREGMLGVSLFMGGETSSNWATVQIPGFAYRLKAAFLSQELKRGGQLQWILLRYSQALITQIAQIGVCNRYHTIEQQLCRWFLLTLDRLDSSELSMTQELIANALGVSRESVAGVAGKLQGRGIIRYQRGHITVLNRTGLETGACECYETIKKEFDDALDDVRKPTLHQGDQSSKTLPLL”, for which the “soluble on expression in E. coli” value is listed as “not soluble”. The value for “MGSDKIHHHHHHMEKVLEIRDLKVYFDLTEGTVKAVDGVSFDIRRGEILGLVGESGCGKSVTAQSILRILPKSARIVNGEIVFHRNGKTLDLTRLDPEGEEIRDIRGKDISMIFQEPMASFSPVYTVGAQMIEAILLHENVSKEEARKRVVEMLKKVKIPNAEKVVDMYPFELSGGMLQRCMIAMAMSLNPTLLLADEPTTALDVTIQAQILYLMKELQKEYHSSILLITHDMGVVAQMADRVAVMYLGNIVETAEVFELFKNPLHPYTQALLRSIPKIGIRKTRLETIKGMVPDPYNLPTGCRFHNRCEKFMKGLCDVKEPPEVEVKPGHKVKCFLYGGEKE” was “not soluble”; that for “MGSDKIHHHHHHMELPVVVQQALGDNAPGVSFRSVSQIDTGHLLRMVLLSDDQGNLQAICRRNDMLDLEALNKRLGRDLRMMQRREQVRVRQKAGLQELPALPSLTGWPTVVDRRVDELEAVALELGEQDLGLMMPAEDFRQLTAKAARHDFAVDTANISVNLDNHAADRDQLHSAIKRFTGLRIQQRLEDTLELPPLPETAQRIIHLRVNPNAVMGDLVDVVESDPSLAAQVVSWASSSFYAAAGRVHSVHDAVSRVLGFDLVMNLAMGLALGRALKHPQDHPDGYVDYWQQAIWQAQSAGILASMMPRGQRPLFGLAYLAGLLHNFGHLVLAQVFPPHFKLVCRSLEVSPHIDSSVIEHYLLGITREQIAAQLMENWGMPDEVTLAIRYQKNPAYDGPHNVYARLLWLGRQLLTERGVALGAGESATQAVYDELGLDRELVQEQFDELVRRKDSIMAMAGMMSQGG” was “not soluble”. Consider “MGSDKIHHHHHHMELVSVKRIWEQGEHNAFTDLVLYQGTLFCVFREGSAHVSPDGALRILRSHDAGETWQSVALLTSAHADLRDGKLIEFRGELLLLGGGTQHDKSGLQSYLWRSKDGVHWSEPQAVADKGYWLWRLTEHQDALYGVGYRAGPDGDTRLYKSDDSVEFTPWMPVFNNQGYVNESSLVFHQGSCFCLLRRDPVWSDEFLGLLGHSLSPFKQWTWQTLDKRIGGPVLFVYQSRLMAVVRLYEGDIRTALVEINQDTGQLHEWLTLPSQGDTSYAGIVLDGDDLLVSYYSSHEQAMVSDLERSDTQDDKAQDKFKTMIYFAKIKLGQN”, for which the “soluble on expression in E. coli” value is given as “not soluble”. As to “MGSDKIHHHHHHMENLTLKGKVILEGIIELETGMHIGGTKETLKIGGTDNPVIRDAFGRILIPGSSLKGKIRALLERKDGKYKEDGRGNYLPHDCGECEICKIFGPHDSKNIKEPVRVIVRDAYLQPEENKKDYDYLEIKVENTIDRLKGTTIKGGIRNMERVVAGSKFKFEVVFNIYKESDKELIKKFIEGMKLLEDDYLGGSGSRGYGKIKFRDIKLICKPKEYYEGNENSKKESDEVESLNELESELDKIWGGINFN”, the “soluble on expression in E. coli” value is given as “not soluble”. For the sequence “MGSDKIHHHHHHMENRITLRHLEAFRAIMVRKSVTGAAEMLEVTQPVVTRLIADLEERIALTLFTRTKGRLVPTPEAALLVKDVEQSLLSIERIANAATNIKSLKMGRLEIAASPNMALSFLPRAINSFTLAHPEAHVSMRMHSSPTVLDMVQRDQCDLGFAMFPARSTKSGNSETLVSAKMVAVVPKTHALATKRTLRPEHFEGERFISMMPLMESRMRIDSLMLSHGVRRHVNCETQTSAAVLQLVEAGVGISIIDPLTACGYTGTGVKFLNFEPVIRNDYSIVISQRNSSTLILKPFIDHAKREILNMVPAHLLIRS”, the “soluble on expression in E. coli” value was “not soluble”. For “MGSDKIHHHHHHMENYQLRIAHLYGDLMNTYGDYGNVIAIKYYAKQIQVETDYHLISLGDSFKADDYDFVIFGGGQDYEESVTAKDLPSKSDEIKKYIENNDSLLAVCGGFQLLGTTMEFANGKIINGIGAMSHHTVNLNSSELFDNMRGKRLIGNIQIKNNESGETYHGFENHQGRTFLGKGEKALGTVVSGNGNNGDDKTEGVIYKQVYGTYFHGPILTRNGNLAKRILKNALLKRYPDIDWQAKLDGIPTESF”, the “soluble on expression in E. coli” value is on record as “not soluble”. Then “MGSDKIHHHHHHMERAMKILAHRGWWLEPVEKNSETAFRRAFENGFGVETDTRDQNGVLKIAHDMPVGDQVMDLDYFLDLHKSYAGSGTIAMNIKADGLHKALRASLEGAGITDLFCFDMAVPDAIGYLNNGFITYTRHSELEPLPPFYDKAQGVWLDAFYSDWITPDVIQKHLDAGKKVALVSPELHGRDHTAAWDVWGDLTGDDISICTDLPHLAAEKWG”, with “not soluble”. As to “MGSDKIHHHHHHMERIPVIKTSDLSIGYILKGGQKKRVHDALDLNLYPGEVTCLLGLNGAGKSTLLRTLCGFQPPLGGEIELMGKPLNSYSQGNFSRLVGVVLTEKTNAGGITVYELVSLGRHPYTGFFGQLRQEDRRIIEESLAAAGIAHKAYNYVSELSDGERQKAMIAKALAQQCPIILLDEPTAFLDVTSRIETMVLLHTLAVEQQKAILLSTHDLDLAIQLGDCLWLQEKKRPMACGTPEDLIMGGAFETFFSKEGIVFDPNTGKLNTVAPAKLIGVAGDFMTSYWVGNALIRNGFKPSSVSEDYISVYCNAPDSLRIQFPAEEGTRIVGSVAEMISIIIHKS”, the “soluble on expression in E. coli” value is “not soluble”. Turning to “MGSDKIHHHHHHMESAKDITGRIFNIQKYSIYDGDGVRTLIFMKGCNIRCPWCANPEGIRRAYQILFSPDKCLHCGKCAEACPRGIHTLIADEYGSRFHHIDRTVQCTGCRKCEAACPSNALDIVGKDMTVAELMAVIMQDYSFYQSSGGGVTLSGGEVSLQTDFAVALLQACKQKMINTAVETQGTTSISHYDQLAAVTDMFLFDIKHIDTNQHKALFGIGNENIRRNLEHLVELGANIVIRMPLVRGYNDSYDAIMGAIHYVQKLAKRGNVRRIDILPYHQLGRKKYERLGMIYPIKADPSYNEEELNRLDAFFDEFDFDIRLVRH”, the “soluble on expression in E. coli” value was “not soluble”.

For the sequence “MGSDKIHHHHHHMESSFEVETRTVFDRYQRQQENDDHIFDRLVSLIEEEYFGLPTGSFRGLDVLDAGCGSNANASWAFLDKGARNVVSLELSNDWMDCARKRLSRFGLRSELVAGSVLDLPFDDFSFDFVHCAGVLPHTSNPKKGFEELARVTRPGGSFFLTIMGTANGVIYRCINHLRELYQSDEQFRSSIDNLDASTAREAINWLLRIKDGEEKEYIPGENEFFRSLFDDDLFVTIRDRFQAPTYHEFAFTEAQIRGWYGECGFEKIRRISRYTKNFHNLRRFLAPMYRHYDHPLARFWFGDGCIQMIGEKPST”, the “soluble on expression in E. coli” value was “not soluble”. Then “MGSDKIHHHHHHMETMFDTLLQLPLFQGLCHEDFTSILDKVKLHFIKHKAGETIIKSGNPCTQLCFLLKGEISIVTNAKENIYTVIEQIEAPYLIEPQSLFGMNTNYASSYVAHTEVHTVCISKAFVLSDLFRYDIFRLNYMNIVSNRAQNLYSRLWDEPTLDLKSKIIRFFLSHCEKPQGEKTFKVKMDDLARCLDDTRLNISKTLNELQDNGLIELHRKEILIPDAQKLL”, with “soluble”; and “MGSDKIHHHHHHMEWILFDKDGTLIEFDSSWEKIGVRLVDQLLETFPVHDKEAAHRQLGIIDKKIKPDSVMGSGSLGEIIESFNGVTGKETSDWTRDTSQELIDSRVPENNWIDGVQETIQALRNEGYHIGIVTSDTKKGVDQFLEETQTRNLFDLVISTETHAEEKPHPKVLDPLFNAFDVEPGQVAIVGDTANDMKTAINANLGLGIGVLTGVAKKEELYDADVIINSAKDVKQVIEQYGK”, with “not soluble”.

Turning to “MGSDKIHHHHHHMFDWEDLRHFSAFSSAGSLSAAAKTLGVDHATVARRIASLEASLQLKLVDRRPRAYALTHEGQRVAELAEQMAMSSFALEHFASAGQQTVEGEVVLSAPPALLGSIIARRLGELYQRYPQLRLKLVGSKSKASLVRREADISIALARPTEPTLVVSLLGHLDYRLYASPGYLASATVRRYIGYDESQARSPQQQWLNLQAGQQPFALHSNDLRIQAQACAGGIGIACLPAFMAQEHGLKEAGSAQQTMSIEIWLAVHEDVRATPRIKAVTDFLQQQVRPLLRL”, the “soluble on expression in E. coli” value is “not soluble”. Then “MGSDKIHHHHHHMFLKNAWYVAAWDHEVRTDLQQIMVLGEKICMFRTQSGDLVALEDACPHRKLPLSKGRIKGDTVECGYHGLTFNCAGTCVWAPGASGIPSNARVHAYPLAEKYGLIWIWMGNPALADPSDIFEIENYGNPDWGINRGAAMELDCNYLLMCDNLLDPTHVAWVHQSSFAAEATKDTPLHVTKTDTGIIVHRWMMDHDPAPFYKKVVEFDGNCDRLQHYEVRYPSHALVRAVFTPAGTGGPDGPLHANTFIMDSYNFMTPVSEGKTRYYWFQLRNIRPDDEALSQMMSDDVHHAFEEDRAVLNEVQIGMSSKTSPHIDLPIDGGQLRFRRQLQAMINEEAQVDAQMAE”, with “not soluble”.

With “MGSDKIHHHHHHMFPFERQNKIIHLLDQNSKITVPELSRILDVSISTIRNDLSSLEESGMIKKVHGGAVLLKSEEKFTNFNDRIIRNIEEKEAIAKEAATLVKNNQTIILDASSTALALAKELHGFSRLTVITSGLYTAIELKDNPNISVILTGGIVTTNSFTLEGILGANLIENIHADLCFMSAKGFTMEEGLTDFNIYETELKRLLAKRTNKLIALLDHTKMGVISTASITAAENIDLLITDNKINKALYKKFQDAGLPVKIAE”, the “soluble on expression in E. coli” value is “not soluble”. For the sequence “MGSDKIHHHHHHMFRIQLRTMSSKTCKSDYPKEFVSFLNSSHSPYHTVHNIKKHLVSNGFKELSERDSWAGHVAQKGKYFVTRNGSSIIAFAVGGKWEPGNPIAITGAHTDSPALRIKPISKRVSEKYLQVGVETYGGAIWHSWFDKDLGVAGRVFVKDAKTGKSIARLVDLNRPLLKIPTLAIHLDRDVNQKFEFNRETQLLPIGGLQEDKTEAKTEKEINNGEFTSIKTIVQRHHAELLGLIAKELAIDTIEDIEDFELILYDHNASTLGGFNDEFVFSGRLDNLTSCFTSMHGLTLAADTEIDRESGIRLMACFDHEEIGSSSAQGADSNFLPNILERLSILKGDGSDQTKPLFHSAILETSAKSFFLSSDVAHAVHPNYANKYESQHKPLLGGGPVIKINANQRYMTNSPGLVLVKRLAEAAKVPLQLFVVANDSPCGSTIGPILASKTGIRTLDLGNPVLSMHSIRETGGSADLEFQIKLFKEFFERYTSIESEIVV”, the “soluble on expression in E. coli” value is listed as “not soluble”.

In the case of “MGSDKIHHHHHHMFRPQDDFTYLMPVHFGGGKFDPETLVTQKATALSLSFETERDLLENYIPEGFELLAPEVQVAFNKFTEINWLHGGQYNLINVAAPVRFHGKKDELDGAYTLVVWENKTAPILGGREQTGIPKIYADIEDLHIVRPHFATTVSYEGNTFLNMDFEATGSITGRDLDALKSQFLTMNTLGWRYIPKVGAPGAELSQFVLYPQGMEVETAEVGKGSLKWTELTPMQSPAQYYIVNSLASLPIKRVTQAVLVEGRAILRAMGARVIE”, the “soluble on expression in E. coli” value is “not soluble”. The value for “MGSDKIHHHHHHMFSSEVIASFNELEMSIYNYICQHAEKVAYMRIRELADETHVSTATILRFCRKVDCDGFSEFKVKLKMHLEKEKKAPIKSSQHAIAEFFERAFRGDLEERISEAAALVADAENVIFIGIGSSGILAEYGARYFSALGKLSMYIKDFSYPIHSKLRQNSVTIALSVSGETHFTITQVNQLKQEGSKIISITNNKFSTIAKVADVNLSYYVSEEFFEKANITTQVPVVYILEAMARELYKLQG” was “not soluble”.
